Measurements reported in publication PMC8765631.

What was measured:
[1] = target: RhsA_(ΔTMD) (RhsA lacking its N-terminal prePAAR motif and TMD, residues 74-1486) (Pseudomonas protegens Pf-5); assay: cryo-EM structure; purified RhsA_(ΔTMD) at 4 mg/ml in 20 mM Tris-HCl pH 8.0, 150 mM NaCl; single particle analysis with C2 symmetry, 3.3 Å
[2] = target: VgrG1 from Pseudomonas protegens (Pseudomonas protegens Pf-5); assay: cryo-EM structure

Row | stoichiometry N [2] | Substance | stoichiometry N [1]
1 |  | RhsA_(ΔTMD) (RhsA lacking its N-terminal prePAAR motif and TMD, residues 74-1486) (domain or fragment) | 2
2 | 3 | VgrG1 from Pseudomonas protegens (natural protein) | 
